Measured values taken from patent US20020068706A1 (GPC BIOTECH, published 2002).

What was measured:
cdc2/cyclin B complex = cdc2/cyclin B complex (UniProt P06493 1-297); assay: cell-based or functional assay
CDK4/cyclin D1 complex [1] = target: T1, CDK4/cyclin D1 complex (UniProt P11802 1-303; P24385 1-295); assay: cell-based or functional assay
CDK2/cyclin E complex = CDK2/cyclin E complex (UniProt P24941 1-298); assay: cell-based or functional assay
CDK2/cyclin A complex = CDK2/cyclin A complex (UniProt P24941 1-298); assay: cell-based or functional assay
CDK4/cyclin D1 complex [2] = target: T1, CDK4/cyclin D1 complex; assay: inhibition constant from in vitro kinase assay (Sf9 extract, Gst-Rb substrate)

T1 sequence (P11802 whole entry, chain 1 of 2): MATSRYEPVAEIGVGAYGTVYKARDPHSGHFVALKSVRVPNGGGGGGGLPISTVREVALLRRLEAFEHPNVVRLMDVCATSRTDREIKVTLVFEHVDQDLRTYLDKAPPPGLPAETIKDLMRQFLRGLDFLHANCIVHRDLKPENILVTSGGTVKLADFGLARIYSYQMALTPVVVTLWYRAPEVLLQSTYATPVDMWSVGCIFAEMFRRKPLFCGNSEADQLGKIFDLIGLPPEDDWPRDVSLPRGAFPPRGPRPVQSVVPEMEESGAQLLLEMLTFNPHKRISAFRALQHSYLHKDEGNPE
T1 sequence (P24385 whole entry, chain 2 of 2): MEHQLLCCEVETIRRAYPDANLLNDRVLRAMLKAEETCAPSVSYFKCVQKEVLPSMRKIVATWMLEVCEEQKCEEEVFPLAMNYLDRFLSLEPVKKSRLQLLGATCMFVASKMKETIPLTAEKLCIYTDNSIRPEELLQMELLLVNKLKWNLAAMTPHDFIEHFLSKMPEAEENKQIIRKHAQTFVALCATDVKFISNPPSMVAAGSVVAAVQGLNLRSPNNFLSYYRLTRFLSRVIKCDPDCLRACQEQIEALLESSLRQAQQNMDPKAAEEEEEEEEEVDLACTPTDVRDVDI
cdc2/cyclin B complex, sequence (P06493 whole entry, one chain of several): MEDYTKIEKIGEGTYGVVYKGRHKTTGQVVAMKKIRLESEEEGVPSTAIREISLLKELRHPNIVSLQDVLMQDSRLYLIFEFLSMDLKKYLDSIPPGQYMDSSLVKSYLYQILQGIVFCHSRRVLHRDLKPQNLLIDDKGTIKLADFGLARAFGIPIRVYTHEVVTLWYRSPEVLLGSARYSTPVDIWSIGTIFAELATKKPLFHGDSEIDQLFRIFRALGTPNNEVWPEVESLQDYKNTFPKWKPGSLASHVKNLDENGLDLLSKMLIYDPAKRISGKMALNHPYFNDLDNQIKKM

B1: p16 (other, human, UniProt P42771 1-156, looked up)
chain: MEPAAGSSMEPSADWLATAAARGRVEEVRALLEAGALPNAPNSYGRRPIQVMMMGSARVAELLLLHGAEPNCADPATLTRPVHDAAREGFLDTLVVLHRAGARLDVRDAWGRLPVDLAEELGHRDVARYLRAAAGGTRGSNHARIDAAEGPSDIPD
notes: also called p16^Ink4/MTS1; p16^INK4A
IC50 of in vitro kinase assay (32P incorporation into Gst-Rb) (cdc2/cyclin B complex): > 500 nM | IC50 of in vitro kinase assay (32P incorporation into Gst-Rb) (CDK4/cyclin D1 complex [1]): 250 nM | IC50 of in vitro kinase assay (32P incorporation into Gst-Rb) (CDK2/cyclin E complex): > 500 nM | IC50 of in vitro kinase assay (32P incorporation into Gst-Rb) (CDK2/cyclin A complex): > 500 nM | Ki (CDK4/cyclin D1 complex [2]): 75 nM
